system: Escherichia coli TOP10; assay: shrunken log2 fold change of peptide-encoding DNA abundance (4.5 h post-induction vs induction); higher = less antimicrobial activity (less host growth inhibition); details: time post-induction: 4.5 h; library: site-saturation at positions 5, 18, 19, 20
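Note: peptides expressed intracellularly from a pBAD plasmid library in pooled LB shake-flask culture, induced with 0.3% L-arabinose, DNA abundance read by NGS, three biological replicates, DESeq2 with apeglm shrinkage.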

| Sequence | shrunken log2 fold change |
| --- | --- |
| RRIRIRPPRLPRPRPRPNTKPRP | -0.202 |
| RRIRYRPPRLPRPRPRPWFTPRP | -0.165 |
| RRIRRRPPRLPRPRPRPMYVPRP | -0.203 |
| RRIRQRPPRLPRPRPRPHEFPRP | -0.287 |
| RRIRFRPPRLPRPRPRPYANPRP | -1.28 |
| RRIRDRPPRLPRPRPRPKIHPRP | -0.214 |
| RRIRWRPPRLPRPRPRPVMGPRP | 0.37 |
| RRIRGRPPRLPRPRPRPVKFPRP | 0.326 |
| RRIRGRPPRLPRPRPRPGFKPRP | 0.354 |
| RRIRVRPPRLPRPRPRPPCKPRP | 0.106 |
| RRIRTRPPRLPRPRPRPIEKPRP | -0.478 |
| RRIRDRPPRLPRPRPRPLHRPRP | -0.375 |
| RRIRKRPPRLPRPRPRPECHPRP | -0.0136 |
| RRIRNRPPRLPRPRPRPHQGPRP | -0.0861 |
| RRIRVRPPRLPRPRPRPDQNPRP | -0.0845 |
| RRIRFRPPRLPRPRPRPMYVPRP | -1.63 |
| RRIRKRPPRLPRPRPRPCAMPRP | 0.367 |
| RRIRWRPPRLPRPRPRPINNPRP | -0.659 |
| RRIRSRPPRLPRPRPRPWGGPRP | 0.27 |
| RRIRHRPPRLPRPRPRPIRHPRP | -0.0447 |
| RRIRARPPRLPRPRPRPSFYPRP | -0.155 |
| RRIRIRPPRLPRPRPRPTTAPRP | -0.00422 |
| RRIRGRPPRLPRPRPRPCFAPRP | 0.789 |
| RRIRCRPPRLPRPRPRPCQNPRP | -0.0888 |
| RRIRIRPPRLPRPRPRPWTFPRP | 0.0921 |

| Sequence | shrunken log2 fold change |
| --- | --- |
| RRIRNRPPRLPRPRPRPPDWPRP | 0.641 |
| RRIRPRPPRLPRPRPRPFPSPRP | 0.0138 |
| RRIRSRPPRLPRPRPRPHKPPRP | -0.507 |
| RRIRFRPPRLPRPRPRPDIAPRP | 0.101 |
| RRIRRRPPRLPRPRPRPMAFPRP | 0.024 |
| RRIRPRPPRLPRPRPRPWHRPRP | -0.156 |
| RRIRMRPPRLPRPRPRPDSIPRP | 0.0402 |
| RRIRRRPPRLPRPRPRPYNEPRP | -0.103 |
| RRIRWRPPRLPRPRPRPAEGPRP | 0.000853 |
| RRIRSRPPRLPRPRPRPHCSPRP | -0.686 |
| RRIRYRPPRLPRPRPRPLHEPRP | -0.343 |
| RRIRSRPPRLPRPRPRPSDDPRP | -0.274 |
| RRIRHRPPRLPRPRPRPKILPRP | 0.0673 |
| RRIRPRPPRLPRPRPRPRKMPRP | 0.0337 |
| RRIRGRPPRLPRPRPRPLSQPRP | 0.872 |
| RRIRWRPPRLPRPRPRPSRMPRP | 0.0635 |
| RRIRKRPPRLPRPRPRPKMYPRP | -0.0411 |
| RRIRSRPPRLPRPRPRPVVRPRP | 0.367 |
| RRIRFRPPRLPRPRPRPHEEPRP | 0.00592 |
| RRIRKRPPRLPRPRPRPPCEPRP | 0.509 |
| RRIRIRPPRLPRPRPRPRGPPRP | 0.81 |
| RRIRRRPPRLPRPRPRPEHVPRP | 0.232 |
| RRIRHRPPRLPRPRPRPKSYPRP | -0.245 |
| RRIRIRPPRLPRPRPRPFMAPRP | -0.397 |
| RRIRRRPPRLPRPRPRPCMCPRP | -0.382 |

| Sequence | shrunken log2 fold change |
| --- | --- |
| RRIRGRPPRLPRPRPRPFEPPRP | 0.267 |
| RRIRNRPPRLPRPRPRPEMLPRP | 0.0345 |
| RRIRMRPPRLPRPRPRPGKCPRP | -0.0233 |
| RRIRERPPRLPRPRPRPPAIPRP | -0.0287 |
| RRIRCRPPRLPRPRPRPHHNPRP | -0.901 |
| RRIRTRPPRLPRPRPRPIFWPRP | 0.85 |
| RRIRIRPPRLPRPRPRPDNSPRP | -1.35 |
| RRIRSRPPRLPRPRPRPTARPRP | 0.44 |
| RRIRSRPPRLPRPRPRPREIPRP | 0.426 |
| RRIRPRPPRLPRPRPRPIHAPRP | -0.0974 |
| RRIRIRPPRLPRPRPRPITYPRP | -0.323 |
| RRIRHRPPRLPRPRPRPVDWPRP | 0.15 |
| RRIRHRPPRLPRPRPRPMYFPRP | -0.00207 |
| RRIRNRPPRLPRPRPRPFPHPRP | -0.0462 |
| RRIRMRPPRLPRPRPRPINEPRP | -0.0839 |
| RRIRERPPRLPRPRPRPVKCPRP | -0.069 |
| RRIRSRPPRLPRPRPRPVWSPRP | 0.0126 |
| RRIRKRPPRLPRPRPRPPWLPRP | 0.574 |
| RRIRLRPPRLPRPRPRPPKEPRP | 0.00696 |
| RRIRDRPPRLPRPRPRPVDWPRP | 0.812 |
| RRIRARPPRLPRPRPRPSISPRP | 0.0682 |
| RRIRERPPRLPRPRPRPQSMPRP | -0.0801 |
| RRIRPRPPRLPRPRPRPWEKPRP | -0.106 |
| RRIRYRPPRLPRPRPRPWAGPRP | -0.53 |
| RRIRTRPPRLPRPRPRPIWPPRP | 0.173 |

| Sequence | shrunken log2 fold change |
| --- | --- |
| RRIRTRPPRLPRPRPRPFKHPRP | -0.126 |
| RRIRFRPPRLPRPRPRPIFHPRP | -0.295 |
| RRIRWRPPRLPRPRPRPDLSPRP | 0.000407 |
| RRIRFRPPRLPRPRPRPTGIPRP | -0.26 |
| RRIRARPPRLPRPRPRPALNPRP | 0.431 |
| RRIRRRPPRLPRPRPRPTGPPRP | 0.369 |
| RRIRTRPPRLPRPRPRPCNSPRP | -0.0206 |
| RRIRIRPPRLPRPRPRPVVIPRP | -0.307 |
| RRIRLRPPRLPRPRPRPRNHPRP | -0.44 |
| RRIRMRPPRLPRPRPRPDLEPRP | 1.54 |
| RRIRQRPPRLPRPRPRPCSSPRP | -0.0115 |
| RRIRARPPRLPRPRPRPNPIPRP | -0.19 |
| RRIRMRPPRLPRPRPRPPNWPRP | 1.03 |
| RRIRKRPPRLPRPRPRPCSDPRP | -0.0361 |
| RRIRSRPPRLPRPRPRPCNPPRP | -0.212 |
| RRIRFRPPRLPRPRPRPIPYPRP | -0.102 |
| RRIRFRPPRLPRPRPRPPAIPRP | 0.363 |
| RRIRSRPPRLPRPRPRPMIAPRP | 0.0435 |
| RRIRHRPPRLPRPRPRPIIVPRP | -0.0935 |
| RRIRWRPPRLPRPRPRPFWKPRP | -0.136 |
| RRIRDRPPRLPRPRPRPRQIPRP | -0.233 |
| RRIRRRPPRLPRPRPRPYQLPRP | -0.234 |
| RRIRYRPPRLPRPRPRPPTKPRP | 0.444 |
| RRIRDRPPRLPRPRPRPQHFPRP | -0.422 |
| RRIRGRPPRLPRPRPRPVNQPRP | 0.35 |

| Sequence | shrunken log2 fold change |
| --- | --- |
| RRIRFRPPRLPRPRPRPVRKPRP | -0.355 |
| RRIRFRPPRLPRPRPRPIDNPRP | 2.36 |
| RRIRWRPPRLPRPRPRPVQDPRP | -0.103 |
| RRIRPRPPRLPRPRPRPTFLPRP | -0.0646 |
| RRIRPRPPRLPRPRPRPIKNPRP | -0.219 |
| RRIRHRPPRLPRPRPRPYDKPRP | -0.961 |
| RRIRERPPRLPRPRPRPGLMPRP | -0.0269 |
| RRIRQRPPRLPRPRPRPCLIPRP | -0.0017 |
| RRIRHRPPRLPRPRPRPDLSPRP | -0.000678 |
| RRIRGRPPRLPRPRPRPFNWPRP | 0.153 |
| RRIRKRPPRLPRPRPRPKQFPRP | -0.123 |
| RRIRTRPPRLPRPRPRPHMNPRP | -0.547 |
| RRIRGRPPRLPRPRPRPAIRPRP | 0.768 |
| RRIRARPPRLPRPRPRPISNPRP | -0.174 |
| RRIRERPPRLPRPRPRPKAKPRP | -0.0257 |
| RRIRCRPPRLPRPRPRPGGDPRP | 0.142 |
| RRIRHRPPRLPRPRPRPSRHPRP | 1.6 |
| RRIRTRPPRLPRPRPRPKHNPRP | -0.362 |
| RRIRSRPPRLPRPRPRPMLNPRP | -0.198 |
| RRIRVRPPRLPRPRPRPEYCPRP | -0.154 |
| RRIRYRPPRLPRPRPRPADWPRP | 0.0899 |
| RRIRYRPPRLPRPRPRPGNPPRP | -0.377 |
| RRIRWRPPRLPRPRPRPFCNPRP | -0.24 |
| RRIRERPPRLPRPRPRPDIKPRP | -0.248 |
| RRIRKRPPRLPRPRPRPAESPRP | 0.563 |

| Sequence | shrunken log2 fold change |
| --- | --- |
| RRIRRRPPRLPRPRPRPFDTPRP | -0.154 |
| RRIRRRPPRLPRPRPRPAKWPRP | 0.123 |
| RRIRGRPPRLPRPRPRPIDGPRP | 0.245 |
| RRIRARPPRLPRPRPRPFFEPRP | 0.423 |
| RRIRSRPPRLPRPRPRPTPFPRP | -0.0055 |
| RRIRARPPRLPRPRPRPWWNPRP | -0.108 |
| RRIRARPPRLPRPRPRPMPFPRP | 0.263 |
| RRIRLRPPRLPRPRPRPGSTPRP | -0.381 |
| RRIRWRPPRLPRPRPRPKAFPRP | -0.0585 |
| RRIRARPPRLPRPRPRPIEYPRP | -0.267 |
| RRIRNRPPRLPRPRPRPYNCPRP | -0.385 |
| RRIRDRPPRLPRPRPRPIYTPRP | -0.105 |
| RRIRARPPRLPRPRPRPNMSPRP | 0.12 |
| RRIRHRPPRLPRPRPRPMPFPRP | 0.0462 |
| RRIRIRPPRLPRPRPRPCWGPRP | 0.162 |
| RRIRDRPPRLPRPRPRPKGYPRP | -0.097 |
| RRIRHRPPRLPRPRPRPEDKPRP | -0.0488 |
| RRIRARPPRLPRPRPRPPIAPRP | 0.534 |
| RRIRHRPPRLPRPRPRPTDFPRP | -0.0704 |
| RRIRQRPPRLPRPRPRPNPTPRP | 0.00513 |
| RRIRYRPPRLPRPRPRPVKIPRP | -0.0138 |
| RRIRGRPPRLPRPRPRPMGYPRP | 0.111 |
| RRIRTRPPRLPRPRPRPVQFPRP | -0.0192 |
| RRIRERPPRLPRPRPRPTLVPRP | -0.0681 |
| RRIRQRPPRLPRPRPRPKAIPRP | 0.0432 |

From the supplement of paper PMC9112550, “Optimization of the antimicrobial peptide Bac7 by deep mutational scanning” (BMC Biology, 2022)
